From patent US7094407B2, “Fusion peptide containing human type-1 collagen derived peptide, preparation thereof, and skin anti-aging cosmetic composition comprising the same” (LG Household & Health Care Ltd., priority 2002, dated 2006)

Experiments:
[1] = tested on: guinea pigs; experiment: Skin irritation patch test; assay type: in vivo, guinea pig; conditions: O/W emulsion, 48 hours closed patch
Procedure: In order to test skin irritation of the compound of Chemical Formula 1, a patch test using guinea pigs was conducted [Reference: Draize, J. H. (1959): Dermal toxicity. Assoc. Food and Drug Officials, US. Appraisal of the safety of chemicals in Food, Drugs, and Cosmetics., pp 46–59, Texas State Dept. of Health, Austin, Tex. Federal Register (1973): Method of testing primary irritant substances 38(187): pp 1500–1541]. The compound represented by Chemical Formula 1 was prepared in an O/W emulsion of various concentrations. Fur on the back of the guinea pigs where the sample was to be coated was removed, and the area was allowed to adapt to the surroundings for 24 hours in order to minimize skin irritation that may be caused by the removal of the fur.
Next, a sample coating region was established (1.5 cm×1.5 cm), a sample and gauze were applied thereto, and the coated region was sealed with a thin paper of solid material in order to prevent loss, after which the sealing material was held firmly in place with an elastic bandage. The guinea pigs were maintained in this state for 48 hours then all the applied materials were removed. At two different time periods of 2 hours and 24 hours after removal of the closed patch (50 hours and 72 hours after patch application), the degree of irritation was determined and indicated by an irritation index (P11: primary cutaneous irritation index) and by an irritation degree scale.

[2] = tested on: Balb/c mice; experiment: Allergy test (LLNA, murine local lymph node assay); assay type: in vivo, mouse; conditions: 0.5% and 1.0% solutions in ethanol, 50 μl to both ears for 3 days, [3H]-methylthymidine; versus control
Procedure: An experiment using ethanol as a carrier was selected for a safety test of the compound of Chemical Formula 1 when used as a cosmetic raw material [Reference: Kimber (1990): Identification of contact allergens using the murinelocal lymph node assay, J. Appl. Toxicol. 10(3); 173–180]. A control that uses cosmetic material for an anti-aging agent and the compound of Chemical Formula 1 were prepared in 0.5% and 1.0% solutions. 50 μl of the solution was applied to both ears of Balb/c mice for 3 days, and then the auricular lymph nodes were removed from the mice. The lymph nodes were pulverized to a monocell state, and radioisotope [3H]-methylthymidine was added thereto, after which a resulting material was cultured for 24 hours. Subsequently, amplification of cells (dpm, disintegrations per minute) was measured using a β-scintillation counter (Beckman LS 6000 TA, USA).

[3] = Transdermal absorption (penetration into skin cells) test, Franz cell; assay type: in vitro ADME; conditions: nude mouse back skin 1.7 cm^2, 24 hours, HPLC and LC mass
Procedure: Penetration of a compound, agent, etc. into skin cells is commonly referred to as transdermal absorption, and this will be the term used herein. The transdermal absorption test was conducted using the fusion peptide prepared in Example 1 (Reference: Lehman P A, Slattery J T, Franz T J. Percutaneous absorption of retinoids: Influence of vehicle, light exposure, and dose, J. Invest Dermatol., 91; 56–61. 1998).
Specifically, skin on the back of a female nude mouse 8 weeks of age was cut to a specific depth and to an area of 1.7 cm^2, and the fusion peptide was applied thereto. After 24 hours, the receptor solution and material absorbed in the skin in the back of the mouse were extracted with a transdermal absorption measuring instrument (Franz cell), and quantitatively analyzed using high performance liquid chromatography (HPLC) and liquid chromatography mass (LC mass) techniques. That is, these techniques were used to measure the amount of the compound of Chemical Formula 1 of the present invention that underwent transdermal absorption. […] Example 5: Allergy Test of a Tat-human Type-I collagen DP fusion peptide (LLNA)(SEQ ID NO: 10)

[4] = tested on: wrinkles on the outer corners of the eyes (crow's-feet); experiment: Anti-aging effects, O/W emulsion applied to crow's-feet of human subjects; assay type: in vivo; conditions: 29 women in their thirties, 3 months, one time each day
Procedure: In order to examine anti-aging effects of the Tat-human Type-collagen DP prepared in Example 1, an O/W emulsion comprising the compound of Chemical Formula 1 of the present invention and a control were each applied to human subjects. In particular, the O/W emulsion and control were coated on wrinkles on the outer corners of the eyes (i.e., crow's-feet) of 29 women in their thirties. Application was performed for 3 months, one time each day. Visual observation of anti-aging effects, if any, was performed and ranked according to a scale of four possibilities—no improvement, little improvement, medium improvement, and significant improvement.

[5] = tested on: human fibroblast; experiment: Collagen synthesis effects test; assay type: cell-based; conditions: summary statement of test results
Procedure: In order to measure the usefulness of the Tat-human Type-collagen DP prepared in Example 1 as a skin anti-aging agent, it was tested by comparing the preparation with ascorbic acid, which is known to be a material having an exceptional collagen synthesis effect.
In this test, a human fibroblast of the same number was cultured on a 24-well plate for 24 hours, and the sample as a concentration of 10^−4 to 10^−7 was applied thereto. After 2 hours, proline introduced tridium was applied thereto and a resulting mixture was cultured for 24 hours. Next, an amount of collagen newly-synthesized and newly-secreted from fibroblast was measured a cpm (count per minute) of proline introduced tridium using a medium, and an amount of csp (collagenous sensitive protein) was calculated. A comparative measurement of the collagen synthesis effect was then performed (David F. W. and Wilson Harvey, Analytical Biochemistry (1979); 96, 220 224, Atsushi Hatamochi, Masashi Ono, Hiroaki Ueki, and Masayoshi Namba., J. Invest Dermatol. (1991) 96, 473 477).

[6] = tested on: V79-4 cells; experiment: Cytotoxicity MTT test; assay type: cell-based, Chinese hamster
Procedure: In order to identify the safety of the compound of Chemical Formula 1 when used as a cosmetic raw material, V79–4 cells (Chinese hamster, continuous cell line of lung tissue fibroblast) were cultured and an MTT test was conducted to test cytotoxicity for the compound [Reference: Mossaman T. (1983). Rapid colorimetric assay for cellular growth & survival: application to proliferation & cytotoxicity assays. Journal of Immunological Methods 65, 55–63).

KKKKKKKKKKTKS (Tat-human Type-I collagen DP fusion peptide)
Irritation Degree ([1]; Concentration 0.01 %): Minute irritation | Irritation Index (PII) ([1]; Concentration 0.01 %): 0.52 | Irritation Degree ([1]; Concentration 0.1 %): Minute irritation | Irritation Index (PII) ([1]; Concentration 0.1 %): 0.53 | Irritation Degree ([1]; Concentration 0.5 %): Minute irritation | Irritation Index (PII) ([1]; Concentration 0.5 %): 0.53 | possibility of allergy induction [2]: lower possibility of allergy induction than the control | transdermal absorption capability [3]: superior transdermal absorption capability | anti-aging effects on crow's-feet (visual observation) [4]: exhibits anti-aging effects on crow's-feet | synthesis of collagen and hyaluronic acid [5]: superior synthesis of collagen and hyaluronic acid | cytotoxicity (MTT) ([6]; concentration of 0.01 or less): negligent level of toxicity | cytotoxicity (MTT) ([6]; concentration of 0.1 (%, w.v) or more): very weak toxicity
